From doi:10.1101/721969

Target: Ib-pore (heptameric translocation channel of Clostridium perfringens iota toxin component Ib, after (Clostridium perfringens))
Assay: cryo-EM structure

Ib-pore (heptameric translocation channel of Clostridium perfringens iota toxin component Ib, after (natural protein)
stoichiometry N: 7
